Numbering of substitutions follows the chain as printed. Each block holds one molecule with its values, some of them ahead of it.
Columns and labels:
[1] = biological target: SYCP3_(ΔCt6) (human SYCP3 amino acids 1–230) (human) (UniProt Q8IZU3); assay: SEC-MALS; Superdex 200 Increase 10/300 GL, 20 mM Tris pH 8.0, 500 mM KCl; oligomer size of the eluted peak
[2] = biological target: SYCP3_(ΔNt6) (full length human SYCP3 with 69-EVQNML-74 mutated to alanines) (human) (UniProt Q8IZU3); assay: as above
[3] = biological target: the molecule itself; assay: as above
[4] = biological target: the molecule itself; assay: SEC-MALS; Superdex 200 10/300 GL, 100 μl of 2–3 mg/ml, 20 mM Tris pH 8.0, 150 mM KCl, 25°C; oligomer size of the eluted peak
[5] = biological target: the molecule itself; assay: SEC-MALS; Superdex 200 10/300 GL, 100 μl of 2–3 mg/ml, 20 mM Tris pH 8.0, 500 mM KCl, 25°C; oligomer size of the eluted peak
SYCP3 dCt6 WT = biological target: T1, SYCP3 dCt6 WT (human, UniProt Q8IZU3 1-230); assay: fluorescence anisotropy; Kd per SYCP3 tetramer; 20 mM Tris pH 8.0, 150 mM KCl; FA at 25 C with 25 nM DNA (0-20 uM protein); EMSA 5 min at 4 C with 18.7 uM (per bp) DNA (0-40 uM protein), 0.5% agarose, 0.5x TBE; conditions: protein: recombinant; tags: N-terminal His6, TEV-cleaved; chain copies: 4; label: 5' FAM
T1 sequence: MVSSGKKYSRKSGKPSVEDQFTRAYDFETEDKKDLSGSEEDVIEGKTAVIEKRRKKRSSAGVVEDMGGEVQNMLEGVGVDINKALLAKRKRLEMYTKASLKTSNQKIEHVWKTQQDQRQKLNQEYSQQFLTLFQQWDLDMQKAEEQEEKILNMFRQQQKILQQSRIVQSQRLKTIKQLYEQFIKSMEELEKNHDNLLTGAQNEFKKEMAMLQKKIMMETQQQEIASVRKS

stoichiometry N [1]: 4
Molecule: SYCP3_(ΔCt6) (human SYCP3 amino acids 1–230) (from UniProt Q8IZU3 1-230) (domain or fragment)

stoichiometry N [2]: 4
Molecule: SYCP3_(ΔNt6) (full length human SYCP3 with 69-EVQNML-74 mutated to alanines) (from UniProt Q8IZU3 1-236)

B1: SYCP3_(ΔCt6) ΔBP1 (amino acids 1–230, BP1 52-KRRKKR-57 mutated to alanines) (domain or fragment, human, UniProt Q8IZU3 1-230, looked up)
chain: T1 sequence with K52A, R53A, R54A, K55A, K56A, R57A
notes: Synaptonemal complex protein 3 (SYCP3), human, Swissprot Q8IZU3, amino acids 1-230 with basic patch 1 mutated to alanines; source: E. coli BL21(DE3) Rosetta2, purified as described for wild type SYCP3_(ΔCt6); not shown: His6, N-terminal, cleaved
stoichiometry N [3]: 4

B2: SYCP3_(ΔCt6) ΔBP1+2 (amino acids 1–230, BP1 and BP2 mutated to alanines) (domain or fragment, human, UniProt Q8IZU3 1-230, looked up)
chain: T1 sequence with K52A, R53A, R54A, K55A, K56A, R57A, K88A, R89A, K90A, R91A
notes: Synaptonemal complex protein 3 (SYCP3), human, Swissprot Q8IZU3, amino acids 1-230 with both basic patches mutated to alanines; source: E. coli BL21(DE3) Rosetta2, purified as described for wild type SYCP3_(ΔCt6); not shown: His6, N-terminal, cleaved
stoichiometry N [3]: 4

B3: SYCP3_(ΔCt6) ΔBP2 (amino acids 1–230, BP2 88-KRKR-91 mutated to alanines) (domain or fragment, human, UniProt Q8IZU3 1-230, looked up)
chain: T1 sequence with K88A, R89A, K90A, R91A
notes: Synaptonemal complex protein 3 (SYCP3), human, Swissprot Q8IZU3, amino acids 1-230 with basic patch 2 mutated to alanines; source: E. coli BL21(DE3) Rosetta2, purified as described for wild type SYCP3_(ΔCt6); not shown: His6, N-terminal, cleaved
stoichiometry N [3]: 4

B4: SYCP3_(Core) (human SYCP3 amino acids 66–230) (domain or fragment, UniProt Q8IZU3 66-230, looked up)
chain: MGGEVQNMLEGVGVDINKALLAKRKRLEMYTKASLKTSNQKIEHVWKTQQDQRQKLNQEYSQQFLTLFQQWDLDMQKAEEQEEKILNMFRQQQKILQQSRIVQSQRLKTIKQLYEQFIKSMEELEKNHDNLLTGAQNEFKKEMAMLQKKIMMETQQQEIASVRKS
notes: Synaptonemal complex protein 3 (SYCP3), human, Swissprot Q8IZU3, amino acids 66-230; Cloned in pHAT4 with an N-terminal TEV-cleavable His6 tag; homotetramer by SEC-MALS, AUC and crystal structure; also called SYCP_(Core); not shown: His6, N-terminal, cleaved
stoichiometry N [4]: 4

B5: SYCP3FL (full length human SYCP3, amino acids 1–236) (natural protein, UniProt Q8IZU3 1-236, looked up)
chain: MVSSGKKYSRKSGKPSVEDQFTRAYDFETEDKKDLSGSEEDVIEGKTAVIEKRRKKRSSAGVVEDMGGEVQNMLEGVGVDINKALLAKRKRLEMYTKASLKTSNQKIEHVWKTQQDQRQKLNQEYSQQFLTLFQQWDLDMQKAEEQEEKILNMFRQQQKILQQSRIVQSQRLKTIKQLYEQFIKSMEELEKNHDNLLTGAQNEFKKEMAMLQKKIMMETQQQEIASVRKSLQSMLF
notes: Synaptonemal complex protein 3 (SYCP3), human, Swissprot Q8IZU3, amino acids 1-236 (full length); The methods tell no TEV cleavage for SYCP3FL (only Ni-NTA and buffer exchange), so the His6 tag may have been kept; the printed theoretical tetramer size is 111 kDa; also called full length SYCP3; source: E. coli BL21(DE3) Rosetta2, purified (Ni-NTA, buffer exchange into 20 mM Tris pH 8.0, 500 mM KCl)
stoichiometry N [5]: 4

B6: 60 bp FAM-dsDNA (dsDNA)
DNA 1: ATGGTGTGTGTAGGTTAATGTGAGGAGGAGAGGTGAAGAAGGAGGAGAGAAGAAGGAGGC
DNA 2: GCCTCCTTCTTCTCTCCTCCTTCTTCACCTCTCCTCCTCACATTAACCTACACACACCAT
Kd (SYCP3 dCt6 WT): 200 nM
